Data: patent US20200256880A1, “Neuronal Assay Method Involving Calcineurin” (The Broad Institute, Inc., priority 2017, published 2020)
Read-outs that look alike come from different tables or passages of the source.

Assays:
[1] = test system: phospho-S469 CNAα in rat hippocampal neurons; type: cell-based
phosphorylated CNAα = target: T1, phosphorylated CNAα (Mus musculus, UniProt P63328); experiment: Lambda phosphatase de-phosphorylation specificity test on membrane; type: binding; conditions: cortical neuron (15DIV) lysates on PVDF membrane, with or without cLTP
T1 construct: protein lysates from cortical neurons (15DIV), either 5 min post-cLTP induction or no cLTP control; endogenous in cells; host or cells: primary cortical neurons (15DIV)
Protocol: To further test the specificity of the murine monoclonal antibody for phosphorylated CNAα, de-phosphorylation experiments were performed using lambda phosphatase on protein fixed in a membrane. Specifically, protein lysates from cortical neurons (15DIV), either 5 min post-cLTP induction or no cLTP control, were separated by SDS-PAGE and subsequently transferred to a PVDF membrane. One section of the membrane was incubated overnight at room temperature with lambda phosphatase (FIG. 13, top panel, right blot), while another section was incubated under the same conditions without phosphatase (FIG. 13, top panel, left blot). Following these incubations, the phosphatase-treated and control membrane sections were incubated with the antibody and antibody binding was detected by chemiluminescence. […] As a loading control, the level of total CNAα was also assessed in both membranes sections after the incubations with or without phosphatase (bottom panel of the figure).

CNAα recombinant protein = experiment: Western blot of CNAα recombinant protein WT, S469E and S462E/S469E with monoclonal antibody; type: binding
Protocol: The validation of the specificity of the antibody for pS469 was additionally determined by Western blot using CNAα recombinant protein WT (unphosphorylated), the phosphomimic mutant S469E (see examples above) and a double mutant with substitutions of E for S at both positions 462 and 469 (S462E/S469E). […] Levels of total CNAα were used as a loading control and were assessed after stripping of the membranes and incubation with anti-CNAα rabbit by chemiluminescence (bottom panel).

[2] = listed as monoclonal murine anti-S469 CNAα phosphospecific antibody

B1: brain-derived neurotrophic factor (protein, UniProt P23560 19-247, looked up)
Neurotrophic factor BDNF …: APMKEANIRGQGGLAYPGVRTHGTLESVNGPKAGSRGLTSLADTFEHVIEELLDEDQKVRPNEENNKDADLYTSRVMLSSQVPLEPPLLFLLEEYKNYLDAANMSMRVRRHSDPARRGELSVCDSISEWVTAADKKTAVDMSGGTVTVLEKVPVSKGQLKQYFYETKCNPMGYTKEGCRGIDKRHWNSQCRTTQSYVRALTMDSKKRIGWRFIRIDTSCVCTLTIKRGR
- levels of phospho-S469 CNAα within dendrites [1]: no change

B2: monoclonal mouse anti-pS469 CNAα antibody: monoclonal mouse antibody with the heavy and light chain variable regions listed in the Sequence Table (antibody, V domains shown)
VH: EVQLQQSGAELVRPGASVKLSCTASDFNIKDTYIHWLKQRPEQGLEWIGRIDPANSNPKYDPNFQGKATITTDTSSNTAYLQLSSLTSDDTAVYYCTRRDYYGSGSWFAYWGQGTLVTVSS
VL: DIVMTQAAPSVPVTPGESVSISCRSSKSLLHSNGNTYLYWFLQRPGQSPQLLIYRMSNLASGVPDRFSGSGSGTAFTLRINRVEAEDVGVYYCMQHLEYPLTFGAGTKLELK
- recognition of CNAα with or without lambda phosphatase treatment (phosphorylated CNAα; listed as monoclonal antibody): only able to recognize CNAα in absence of lambda phosphatase treatment
- recognition of CNAα with or without lambda phosphatase treatment (phosphorylated CNAα; listed as monoclonal murine anti-S469 phosphospecific antibody): eliminated phosphospecific antibody binding
- recognition of double mutant S462E/S469E (CNAα recombinant protein): recognition
- recognition of recombinant protein S469E (CNAα recombinant protein): recognizes
- recognition of wild-type unphosphorylated CNAα recombinant protein (CNAα recombinant protein): not
- recognition of double mutant S462E/S469E (CNAα recombinant protein; [2]): does recognize
- recognition of recombinant protein S469E (CNAα recombinant protein; [2]): does recognize
- recognition of wild-type unphosphorylated CNAα recombinant protein (CNAα recombinant protein; [2]): does not recognize
